Test results as given in publication PMC3434800.

How the values were obtained:
[1] = molecular target: T1, Hel308 (ssHel308) wild type (Sulfolobus solfataricus PBL2025, UniProt D0KN27 8-715); assay: competition
T1 sequence: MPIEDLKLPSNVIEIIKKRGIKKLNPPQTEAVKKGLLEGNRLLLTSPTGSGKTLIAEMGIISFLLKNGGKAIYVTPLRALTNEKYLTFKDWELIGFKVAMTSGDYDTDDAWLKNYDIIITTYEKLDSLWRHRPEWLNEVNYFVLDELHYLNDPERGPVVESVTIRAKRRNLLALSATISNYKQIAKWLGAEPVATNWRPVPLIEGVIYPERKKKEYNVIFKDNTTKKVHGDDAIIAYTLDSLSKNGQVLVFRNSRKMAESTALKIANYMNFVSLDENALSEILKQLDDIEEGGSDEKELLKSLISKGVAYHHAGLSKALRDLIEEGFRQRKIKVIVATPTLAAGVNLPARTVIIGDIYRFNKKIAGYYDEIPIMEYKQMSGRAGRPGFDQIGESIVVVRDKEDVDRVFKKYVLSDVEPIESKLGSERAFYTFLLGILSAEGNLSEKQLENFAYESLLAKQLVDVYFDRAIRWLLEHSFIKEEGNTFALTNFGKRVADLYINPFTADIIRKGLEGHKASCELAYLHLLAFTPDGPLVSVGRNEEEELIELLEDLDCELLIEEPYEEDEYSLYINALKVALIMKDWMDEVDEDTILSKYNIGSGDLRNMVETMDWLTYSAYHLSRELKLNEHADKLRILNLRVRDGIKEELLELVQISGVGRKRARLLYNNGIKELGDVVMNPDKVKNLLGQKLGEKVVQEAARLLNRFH

[2] = molecular target: T1, Hel308 (ssHel308) wild type; assay: fluorescence anisotropy
Hel308 R255A = molecular target: T2, Hel308 R255A (Sulfolobus solfataricus PBL2025, UniProt D0KN27 8-715, R262A); assay: fluorescence anisotropy
T2 sequence: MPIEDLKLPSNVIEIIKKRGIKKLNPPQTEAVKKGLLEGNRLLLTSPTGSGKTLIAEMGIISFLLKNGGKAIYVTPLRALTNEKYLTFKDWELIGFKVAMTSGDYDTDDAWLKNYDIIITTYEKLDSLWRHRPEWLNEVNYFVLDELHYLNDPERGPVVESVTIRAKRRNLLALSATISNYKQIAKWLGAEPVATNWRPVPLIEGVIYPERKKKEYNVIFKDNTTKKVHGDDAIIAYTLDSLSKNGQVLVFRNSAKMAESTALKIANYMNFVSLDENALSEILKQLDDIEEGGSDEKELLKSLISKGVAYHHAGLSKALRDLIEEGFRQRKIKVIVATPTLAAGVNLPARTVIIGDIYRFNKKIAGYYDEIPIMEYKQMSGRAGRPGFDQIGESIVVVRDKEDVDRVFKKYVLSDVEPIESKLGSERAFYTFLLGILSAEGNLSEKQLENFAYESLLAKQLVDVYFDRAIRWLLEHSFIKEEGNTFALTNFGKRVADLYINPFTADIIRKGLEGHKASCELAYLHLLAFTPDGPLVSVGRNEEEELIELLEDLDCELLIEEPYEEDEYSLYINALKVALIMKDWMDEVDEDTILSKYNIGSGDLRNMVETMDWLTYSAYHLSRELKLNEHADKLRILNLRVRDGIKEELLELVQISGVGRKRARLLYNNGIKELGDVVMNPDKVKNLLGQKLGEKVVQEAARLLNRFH

Hel308 K52A = molecular target: T3, Hel308 K52A (Sulfolobus solfataricus PBL2025, UniProt D0KN27 8-715, K59A); assay: fluorescence anisotropy
T3 sequence: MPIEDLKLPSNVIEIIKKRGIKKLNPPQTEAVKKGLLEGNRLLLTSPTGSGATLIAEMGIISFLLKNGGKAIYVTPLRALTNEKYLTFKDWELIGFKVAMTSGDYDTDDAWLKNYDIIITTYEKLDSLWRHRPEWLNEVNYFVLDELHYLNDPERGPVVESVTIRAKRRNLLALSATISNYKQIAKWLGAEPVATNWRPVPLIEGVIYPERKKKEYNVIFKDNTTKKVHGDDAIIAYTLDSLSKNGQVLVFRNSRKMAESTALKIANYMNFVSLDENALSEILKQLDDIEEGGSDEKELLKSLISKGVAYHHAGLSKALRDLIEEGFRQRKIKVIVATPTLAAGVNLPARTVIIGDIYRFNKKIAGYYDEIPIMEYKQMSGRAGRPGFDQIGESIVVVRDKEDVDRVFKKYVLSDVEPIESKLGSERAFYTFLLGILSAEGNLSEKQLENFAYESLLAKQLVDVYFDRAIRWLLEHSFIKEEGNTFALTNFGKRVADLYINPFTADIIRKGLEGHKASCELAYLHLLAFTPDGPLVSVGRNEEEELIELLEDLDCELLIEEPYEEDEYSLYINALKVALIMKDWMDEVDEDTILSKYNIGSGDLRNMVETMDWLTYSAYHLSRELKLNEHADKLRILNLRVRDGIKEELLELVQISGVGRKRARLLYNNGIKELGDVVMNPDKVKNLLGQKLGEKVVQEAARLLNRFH

Hel308 R662A = molecular target: T4, Hel308 R662A (Sulfolobus solfataricus PBL2025, UniProt D0KN27 8-715, R669A); assay: fluorescence anisotropy
T4 sequence: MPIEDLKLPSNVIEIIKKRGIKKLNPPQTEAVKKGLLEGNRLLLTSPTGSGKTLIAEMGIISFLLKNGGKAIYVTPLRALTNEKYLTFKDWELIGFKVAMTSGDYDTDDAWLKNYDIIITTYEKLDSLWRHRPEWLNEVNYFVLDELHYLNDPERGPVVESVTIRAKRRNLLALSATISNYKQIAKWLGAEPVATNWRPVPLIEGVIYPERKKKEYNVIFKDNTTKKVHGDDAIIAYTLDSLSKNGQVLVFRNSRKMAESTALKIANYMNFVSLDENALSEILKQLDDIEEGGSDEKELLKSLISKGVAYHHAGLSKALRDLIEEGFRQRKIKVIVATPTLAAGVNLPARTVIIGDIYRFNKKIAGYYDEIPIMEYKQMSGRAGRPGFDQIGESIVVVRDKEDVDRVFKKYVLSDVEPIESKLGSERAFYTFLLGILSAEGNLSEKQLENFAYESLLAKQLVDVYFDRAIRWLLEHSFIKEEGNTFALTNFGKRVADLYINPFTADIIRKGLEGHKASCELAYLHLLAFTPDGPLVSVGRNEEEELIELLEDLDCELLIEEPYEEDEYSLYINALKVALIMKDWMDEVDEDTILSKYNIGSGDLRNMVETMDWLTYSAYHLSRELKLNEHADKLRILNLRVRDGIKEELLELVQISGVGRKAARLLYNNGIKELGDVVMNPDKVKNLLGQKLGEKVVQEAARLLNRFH

B1: 15T ssDNA, unlabelled competitor (ssDNA)
DNA: TTTTTTTTTTTTTTT
[1]
  Kd: 130 nM

B2: 15T/15A duplex, 5'-fluorescein on 15T (dsDNA)
DNA 1: TTTTTTTTTTTTTTT
DNA 2: AAAAAAAAAAAAAAA
[2]
  Kd: 5300 nM

B3: 15T ssDNA, 5'-fluorescein (ssDNA)
DNA: TTTTTTTTTTTTTTT
Hel308 R255A
  binding signal: 25 fold increase in Kd vs wild type
Hel308 K52A
  binding result: binds
Hel308 R662A
  binding result: binds
[2]
  Kd: 140 nM
